Data on 3 molecules can be found in article doi:10.1101/2025.03.09.641110 (bioRxiv, 2025).

The term Kd denotes the concentration at which binding is half-saturated. Lower therefore signals a tighter complex.

The chains are these.
B1: chimeric ALX07 (murine ALX07 variable regions, IgG4 chimeric antibody) (antibody, V domains shown)
VH: QVTLKESGPGILQPSQTLSLTCSFSGFSLSTSALGVGWIRQPPGKGLVWLAHIWWNDVKRSNPALKGRLTISKDTSSSQVFLNIANVDTADTATYYCARSYGNHWYFDVWGAGTTVTVSS
VL: SVVMTQTPKFLLVSAGDRVTIACKASQSVSNDVAWFQQKPGQSPKLLIYYAFTRYIGVPDRFTASGYGTDFTFTISTVQAEDLAIYFCQQDYISPYTFGGGTKLEIK
B2: ALX07xh-05 (direct CDR-grafted humanized ALX07) (antibody, V domains shown)
VH: QVTLKESGPALVKPTQTLTLTCTFSGFSLSTSALGVGWIRQPPGKALEWLAHIWWNDVKRSNPALKGRLTISKDTSKNQVVLTMTNMDPVDTATYYCARSYGNHWYFDVWGQGTLVTVSS
VL: DIVMTQSPDSLAVSLGERATINCKASQSVSNDVAWYQQKPGQPPKLLIYYAFTRYIGVPDRFSGSGSGTDFTLTISSLQAEDVAVYYCQQDYISPYTFGQGTKLEIK
B3: humanized ALX07 (CDR graft) with the S67Y back mutation in the light chain alone (antibody, V domains shown)
VH: QVTLKESGPALVKPTQTLTLTCTFSGFSLSTSALGVGWIRQPPGKALEWLAHIWWNDVKRSNPALKGRLTISKDTSKNQVVLTMTNMDPVDTATYYCARSYGNHWYFDVWGQGTLVTVSS
VL: DIVMTQSPDSLAVSLGERATINCKASQSVSNDVAWYQQKPGQPPKLLIYYAFTRYIGVPDRFSGSGYGTDFTLTISSLQAEDVAVYYCQQDYISPYTFGQGTKLEIK

Chain of extracellular domain of human PD-1 (Programmed cell death protein 1) (Q15116 25-170): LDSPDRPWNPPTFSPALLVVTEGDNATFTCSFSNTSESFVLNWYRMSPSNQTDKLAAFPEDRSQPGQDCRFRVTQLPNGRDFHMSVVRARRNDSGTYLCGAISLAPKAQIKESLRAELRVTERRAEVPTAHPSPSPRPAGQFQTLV

The assay addresses extracellular domain of human PD-1 (Programmed cell death protein 1) (Homo sapiens, UniProt Q15116). Kind of assay: SPR. (In general: In SPR one partner is held on a chip, and binding of the other changes the refractive index at the surface.)
In the case of B1, the Kd came to 1.31 nM. Next, B2: 140 nM; B3: 2.01 nM.
